Measurements published in CN116355089A.

Experiments:
人IV型胶原蛋白α3链多肽 (human) = experiment: indirect ELISA, purified antibody on plates coated with 0.5 μg/ml peptide
生物素标记的抗原多肽 = experiment: BLI (Fortebio Octet), biotinylated peptide on SA biosensor, antibody at 1.56-100 nM

EC50 (人IV型胶原蛋白α3链多肽 (human)): 4.64 ng/mL
Kd (生物素标记的抗原多肽): 399 pM
B1: 4E5E2-1 (antibody, IgG1, V domains shown)
VH: EVQLQQSGAELVRSGASVKLSCTASGFNIKDSNIHWLIQRPEQDLEWIGWIDPDNGDSEYAPKFQGEATMTADTSSNTAYLQLSSLTSEDTAVYFCNAVNWDYFDYWGQGTTLTVSS
VL: DVVVTQTPLSLPVSLGDQASISCRSSQSLVHNNGNTYLHWYLQRPGQSPKLLIYKVSNRFSGVPDRVSGSGSGTDFTLKISRVEAEDLGVYFCSQSTHIPITFGSGTKLEIK
